Results as given in article PMC8379338, “Structures of heat shock factor trimers bound to DNA” (iScience, 2021).

Assays:
[1] = target: the molecule itself; test: crystal structure; DBD co-crystallised with a sticky-ended three-site HSE DNA duplex (21 bp for HSF2; 23 bp and 24 bp for HSF1); protein:DNA molar ratio 3:1.2; hanging drop, 20°C; three DBD copies on one DNA duplex
HSF1-DBD = HSF1-DBD (Homo sapiens, UniProt Q00613 15-120); test: X-ray crystallography; 2.0 A; Co-crystallization at 20 C, hanging drop; protein stock in 20 mM Tris pH 8.0, 150 mM NaCl, 1 mM DTT, 0.2 mM EDTA; DNA annealed in TE; protein:DNA 2:1.5 (2-site) or 3:1.2 (3-site); HSF2 3-site reservoir 0.1 M HEPES pH 7.5, 25% PEG; conditions: protein: recombinant; tags: His6 (N-terminal, between MBP and DBD; MBP removed in vivo by TEV protease); chain copies: 2; blunt; self-complementary, 2 copies of the strand
HSF1-DBD trimer [2] = target: T1, HSF1-DBD trimer (Homo sapiens, UniProt Q00613 15-120); test: X-ray crystallography; 2.4 A; Co-crystallization at 20 C, hanging drop; protein stock in 20 mM Tris pH 8.0, 150 mM NaCl, 1 mM DTT, 0.2 mM EDTA; DNA annealed in TE; protein:DNA 2:1.5 (2-site) or 3:1.2 (3-site); HSF2 3-site reservoir 0.1 M HEPES pH 7.5, 25% PEG; conditions: protein: recombinant; tags: His6 (N-terminal, between MBP and DBD; MBP removed in vivo by TEV protease); chain copies: 3; 22 bp, 5' overhang 1 nt on both strands
HSF2-DBD = HSF2-DBD (Homo sapiens, UniProt Q03933 7-112); test: X-ray crystallography; 1.7 A; Co-crystallization at 20 C, hanging drop; protein stock in 20 mM Tris pH 8.0, 150 mM NaCl, 1 mM DTT, 0.2 mM EDTA; DNA annealed in TE; protein:DNA 2:1.5 (2-site) or 3:1.2 (3-site); HSF2 3-site reservoir 0.1 M HEPES pH 7.5, 25% PEG; conditions: protein: recombinant; tags: His6 (N-terminal, between MBP and DBD; MBP removed in vivo by TEV protease); chain copies: 2; blunt; self-complementary, 2 copies of the strand
HSF1-DBD trimer [3] = target: T1, HSF1-DBD trimer; test: X-ray crystallography; 2.36 A; Co-crystallization at 20 C, hanging drop; protein stock in 20 mM Tris pH 8.0, 150 mM NaCl, 1 mM DTT, 0.2 mM EDTA; DNA annealed in TE; protein:DNA 2:1.5 (2-site) or 3:1.2 (3-site); HSF2 3-site reservoir 0.1 M HEPES pH 7.5, 25% PEG; conditions: protein: recombinant; tags: His6 (N-terminal, between MBP and DBD; MBP removed in vivo by TEV protease); chain copies: 3; 23 bp, 5' overhang 1 nt on both strands
HSF2-DBD trimer = HSF2-DBD trimer (Homo sapiens, UniProt Q03933 7-112); test: X-ray crystallography; 1.75 A; Co-crystallization at 20 C, hanging drop; protein stock in 20 mM Tris pH 8.0, 150 mM NaCl, 1 mM DTT, 0.2 mM EDTA; DNA annealed in TE; protein:DNA 2:1.5 (2-site) or 3:1.2 (3-site); HSF2 3-site reservoir 0.1 M HEPES pH 7.5, 25% PEG; conditions: protein: recombinant; tags: His6 (N-terminal, between MBP and DBD; MBP removed in vivo by TEV protease); chain copies: 3; 20 bp, 5' overhang 1 nt on both strands

B1: DNA-binding domain (DBD) of human heat shock factor 1 (HSF1), residues 15-120 (domain or fragment, UniProt Q00613 15-120, looked up)
chain: VPAFLTKLWTLVSDPDTDALICWSPSGNSFHVFDQGQFAKEVLPKYFKHNNMASFVRQLNMYGFRKVVHIEQGGLVKPERDDTEFQHPCFLRGQEQLLENIKRKVT
notes: The His6 tag lies between the TEV site and the DBD; MBP was removed in vivo by co-expressed TEV protease; In the crystals, two or three copies sit on one DNA duplex; also called HSF1-DBD; DBD I; source: E. coli Rosetta2(DE3) carrying pRK603, purified (Ni-NTA, cation exchange, SEC); not shown: MBP, N-terminal, cleaved
B1: binds [1].

B2: 14 bp HtH HSE (dsDNA)
DNA 1: GCCGAATATTCGGC
DNA 2: GCCGAATATTCGGC
B2: binds (HSF1-DBD).

B3: 23 bp 3-site HSE (dsDNA)
DNA 1: TGGCGTTCTAGAATATTCGCGGA
DNA 2: ATCCGCGAATATTCTAGAACGCC
B3: binds (HSF1-DBD trimer [2]).

B4: DNA-binding domain (DBD) of human heat shock factor 2 (HSF2), residues 7-112 (domain or fragment, UniProt Q03933 7-112, looked up)
chain: VPAFLSKLWTLVEETHTNEFITWSQNGQSFLVLDEQRFAKEILPKYFKHNNMASFVRQLNMYGFRKVVHIDSGIVKQERDGPVEFQHPYFKQGQDDLLENIKRKVS
notes: The His6 tag lies between the TEV site and the DBD; MBP was removed in vivo by co-expressed TEV protease; In the crystals, two or three copies sit on one DNA duplex; also called HSF2-DBD; DBD I; source: E. coli Rosetta2(DE3) carrying pRK603, purified (Ni-NTA, cation exchange, SEC); not shown: MBP, N-terminal, cleaved
B4: binds [1].

B5: 12 bp HtH HSE (dsDNA)
DNA 1: GGGAATATTCCC
DNA 2: GGGAATATTCCC
B5: binds (HSF2-DBD).

B6: 24 bp 3-site HSE (dsDNA)
DNA 1: TGTGCGTTCTAGAATATTCGCGAG
DNA 2: ACTCGCGAATATTCTAGAACGCAC
B6: binds (HSF1-DBD trimer [3]).

B7: 21 bp 3-site HSE (dsDNA)
DNA 1: TGCGTTCTAGAATATTCGCGG
DNA 2: ACCGCGAATATTCTAGAACGC
B7: binds (HSF2-DBD trimer).
